Our source for the migration of human neutrophils across Fbg-coated transwell filters toward fMLP, 25 µg/mL protein (fold reduction) values is article PMC2642718.

In the experiment the target is CD43 (leukosialin) on the surface of primary human neutrophils (human (endogenous in primary neutrophils)) (UniProt P16150).
Sequence of UniProt P16150 (P16150 20-400): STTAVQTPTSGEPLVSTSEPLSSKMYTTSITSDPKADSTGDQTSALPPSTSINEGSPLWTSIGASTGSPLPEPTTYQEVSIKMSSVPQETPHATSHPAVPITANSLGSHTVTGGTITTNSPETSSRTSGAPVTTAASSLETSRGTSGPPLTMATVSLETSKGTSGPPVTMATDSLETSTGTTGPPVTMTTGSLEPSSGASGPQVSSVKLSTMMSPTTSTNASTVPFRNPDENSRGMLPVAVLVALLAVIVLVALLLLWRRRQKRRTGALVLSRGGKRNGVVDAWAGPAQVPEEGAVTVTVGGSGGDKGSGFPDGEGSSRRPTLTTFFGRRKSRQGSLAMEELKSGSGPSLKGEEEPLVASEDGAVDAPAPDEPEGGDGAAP

In the case of “StcE (Secreted protease of C1-esterase inhibitor), recombinant purified protein (from UniProt O82882 36-898) (enzyme)”, the migration of human neutrophils across Fbg-coated transwell filters toward fMLP, 25 µg/mL protein (fold reduction) is 1.7. Turning to “StcE E435D, proteolytically inactive point mutant (from UniProt O82882 36-898) (enzyme)”, the migration of human neutrophils across Fbg-coated transwell filters toward fMLP, 25 µg/mL protein (fold reduction) came out at 1.7.
